± gives the uncertainty stated by the source.
Test: abundance fitness (aPCA) (normalised: wild type 0, dead -1); higher = more abundant; growth selection in yeast, the domain comes from the species named
Settings: Homo sapiens

First: SAFB-like transcription modulator E59R, Q9NWH9
Second: SAFB-like transcription modulator E59T, Q9NWH9
The abundance fitness of the first is lower: -0.532 ± 0.054 for the first, -0.323 ± 0.073 for the second.

First: SAFB-like transcription modulator E59V, Q9NWH9
Second: SAFB-like transcription modulator E59W, Q9NWH9
The abundance fitness of the first is higher: -0.459 ± 0.052 for the first, -1.02 ± 0.089 for the second.

“SAFB-like transcription modulator E67A, Q9NWH9” and “SAFB-like transcription modulator E67C, Q9NWH9” are within error of each other in abundance fitness: -0.197 ± 0.046 for the first, -0.252 ± 0.087 for the second.

“SAFB-like transcription modulator E67D, Q9NWH9” and “SAFB-like transcription modulator E67F, Q9NWH9” are within error of each other in abundance fitness: -0.107 ± 0.086 for the first, -0.041 ± 0.078 for the second.

“SAFB-like transcription modulator E67G, Q9NWH9” and “SAFB-like transcription modulator E67H, Q9NWH9” are within error of each other in abundance fitness: -0.198 ± 0.049 for the first, -0.107 ± 0.15 for the second.

Going from “SAFB-like transcription modulator E67I, Q9NWH9” to “SAFB-like transcription modulator E67K, Q9NWH9”, the abundance fitness falls from 0.017 ± 0.08 to -0.225 ± 0.082.

Going from “SAFB-like transcription modulator E67L, Q9NWH9” to “SAFB-like transcription modulator E67M, Q9NWH9”, the abundance fitness falls from -0.134 ± 0.035 to -0.308 ± 0.092.

“SAFB-like transcription modulator E67N, Q9NWH9” and “SAFB-like transcription modulator E67P, Q9NWH9” are within error of each other in abundance fitness: -0.002 ± 0.069 for the first, -0.155 ± 0.089 for the second.

Compared with “SAFB-like transcription modulator E67Q, Q9NWH9”, “SAFB-like transcription modulator E67S, Q9NWH9” is higher in abundance fitness: -0.35 ± 0.1 for the first, -0.084 ± 0.04 for the second.

“SAFB-like transcription modulator E67T, Q9NWH9” and “SAFB-like transcription modulator E67V, Q9NWH9” are within error of each other in abundance fitness: -0.099 ± 0.049 for the first, -0.042 ± 0.037 for the second.

Compared with “SAFB-like transcription modulator E67W, Q9NWH9”, “SAFB-like transcription modulator E67Y, Q9NWH9” is higher in abundance fitness: -0.27 ± 0.037 for the first, -0.019 ± 0.11 for the second.

Going from “SAFB-like transcription modulator G19A, Q9NWH9” to “SAFB-like transcription modulator G19C, Q9NWH9”, the abundance fitness falls from -0.101 ± 0.09 to -0.391 ± 0.19.

“SAFB-like transcription modulator G19D, Q9NWH9” and “SAFB-like transcription modulator G19E, Q9NWH9” are within error of each other in abundance fitness: -0.027 ± 0.078 for the first, -0.014 ± 0.086 for the second.

Going from “SAFB-like transcription modulator G19I, Q9NWH9” to “SAFB-like transcription modulator G19R, Q9NWH9”, the abundance fitness falls from 0.503 ± 0.23 to -0.757 ± 0.2.

“SAFB-like transcription modulator G19S, Q9NWH9” and “SAFB-like transcription modulator G19T, Q9NWH9” are within error of each other in abundance fitness: -0.003 ± 0.064 for the first, -0.406 ± 0.34 for the second.

First: SAFB-like transcription modulator G19V, Q9NWH9
Second: SAFB-like transcription modulator G19W, Q9NWH9
The abundance fitness of the first is higher: 0.053 ± 0.072 for the first, -0.72 ± 0.35 for the second.

Compared with “SAFB-like transcription modulator G19Y, Q9NWH9”, “SAFB-like transcription modulator G43C, Q9NWH9” is lower in abundance fitness: 0.212 ± 0.24 for the first, -0.464 ± 0.19 for the second.

“SAFB-like transcription modulator G43D, Q9NWH9” and “SAFB-like transcription modulator G43V, Q9NWH9” are within error of each other in abundance fitness: -0.712 ± 0.2 for the first, -0.601 ± 0.26 for the second.

“SAFB-like transcription modulator G60A, Q9NWH9” and “SAFB-like transcription modulator G60C, Q9NWH9” are within error of each other in abundance fitness: -0.317 ± 0.047 for the first, -0.258 ± 0.036 for the second.

Going from “SAFB-like transcription modulator G60D, Q9NWH9” to “SAFB-like transcription modulator G60E, Q9NWH9”, the abundance fitness falls from -0.171 ± 0.062 to -0.347 ± 0.05.

Going from “SAFB-like transcription modulator G60F, Q9NWH9” to “SAFB-like transcription modulator G60I, Q9NWH9”, the abundance fitness falls from -0.584 ± 0.06 to -0.792 ± 0.08.

Going from “SAFB-like transcription modulator G60K, Q9NWH9” to “SAFB-like transcription modulator G60L, Q9NWH9”, the abundance fitness falls from -0.162 ± 0.052 to -0.396 ± 0.036.

First: SAFB-like transcription modulator G60M, Q9NWH9
Second: SAFB-like transcription modulator G60N, Q9NWH9
The abundance fitness of the first is lower: -0.238 ± 0.038 for the first, -0.108 ± 0.04 for the second.

“SAFB-like transcription modulator G60Q, Q9NWH9” and “SAFB-like transcription modulator G60R, Q9NWH9” are within error of each other in abundance fitness: -0.181 ± 0.042 for the first, -0.238 ± 0.033 for the second.

First: SAFB-like transcription modulator G60S, Q9NWH9
Second: SAFB-like transcription modulator G60V, Q9NWH9
The abundance fitness of the first is higher: -0.308 ± 0.041 for the first, -0.515 ± 0.04 for the second.

“SAFB-like transcription modulator G60W, Q9NWH9” and “SAFB-like transcription modulator G60Y, Q9NWH9” are within error of each other in abundance fitness: -0.658 ± 0.047 for the first, -0.591 ± 0.07 for the second.

“SAFB-like transcription modulator G61A, Q9NWH9” and “SAFB-like transcription modulator G61C, Q9NWH9” are within error of each other in abundance fitness: -0.158 ± 0.049 for the first, -0.164 ± 0.064 for the second.

“SAFB-like transcription modulator G61D, Q9NWH9” and “SAFB-like transcription modulator G61E, Q9NWH9” are within error of each other in abundance fitness: -0.229 ± 0.056 for the first, -0.303 ± 0.064 for the second.

Compared with “SAFB-like transcription modulator G61F, Q9NWH9”, “SAFB-like transcription modulator G61H, Q9NWH9” is higher in abundance fitness: -0.474 ± 0.072 for the first, -0.16 ± 0.049 for the second.

First: SAFB-like transcription modulator G61I, Q9NWH9
Second: SAFB-like transcription modulator G61K, Q9NWH9
The abundance fitness of the first is lower: -0.415 ± 0.098 for the first, -0.18 ± 0.06 for the second.

“SAFB-like transcription modulator G61L, Q9NWH9” and “SAFB-like transcription modulator G61M, Q9NWH9” are within error of each other in abundance fitness: -0.098 ± 0.043 for the first, -0.135 ± 0.06 for the second.

“SAFB-like transcription modulator G61N, Q9NWH9” and “SAFB-like transcription modulator G61P, Q9NWH9” are within error of each other in abundance fitness: -0.208 ± 0.083 for the first, -0.31 ± 0.062 for the second.

“SAFB-like transcription modulator G61Q, Q9NWH9” and “SAFB-like transcription modulator G61R, Q9NWH9” are within error of each other in abundance fitness: -0.141 ± 0.066 for the first, -0.227 ± 0.042 for the second.

“SAFB-like transcription modulator G61S, Q9NWH9” and “SAFB-like transcription modulator G61T, Q9NWH9” are within error of each other in abundance fitness: -0.23 ± 0.049 for the first, -0.296 ± 0.046 for the second.

First: SAFB-like transcription modulator G61V, Q9NWH9
Second: SAFB-like transcription modulator G61W, Q9NWH9
The abundance fitness of the first is higher: -0.39 ± 0.046 for the first, -0.537 ± 0.059 for the second.

Going from “SAFB-like transcription modulator G61Y, Q9NWH9” to “SAFB-like transcription modulator I22A, Q9NWH9”, the abundance fitness falls from -0.259 ± 0.082 to -0.65 ± 0.078.

“SAFB-like transcription modulator I22C, Q9NWH9” and “SAFB-like transcription modulator I22D, Q9NWH9” are within error of each other in abundance fitness: -0.347 ± 0.05 for the first, -0.464 ± 0.087 for the second.
